The target in test [1] is T1, GST-fused human PPARγ-LBD (human).
T1 construct: Kit protein, detected through a terbium-labeled anti-GST antibody
Put plainly: AlphaScreen or HTRF; LanthaScreen TR-FRET coregulator peptide assay; serial concentrations of F12016 with GST-PPARγ-LBD, terbium-labeled anti-GST antibody and fluorescein-labeled peptide, 4 h; coactivator data as percent of the maximum of rosiglitazone. As to conditions: both partners purified.

The target in test [2] is T1, GST-fused human PPARγ-LBD. The test is described as follows: AlphaScreen or HTRF; LanthaScreen TR-FRET coregulator peptide assay; serial concentrations of rosiglitazone with GST-PPARγ-LBD, terbium-labeled anti-GST antibody and fluorescein-labeled peptide, 4 h; 520 nm/495 nm ratio. The settings on record: both partners purified. For orientation: Alpha assays give light when donor and acceptor beads are brought close together.

No end group written: not given here.

T1 sequence (P37231 whole entry, the tested form may be a part): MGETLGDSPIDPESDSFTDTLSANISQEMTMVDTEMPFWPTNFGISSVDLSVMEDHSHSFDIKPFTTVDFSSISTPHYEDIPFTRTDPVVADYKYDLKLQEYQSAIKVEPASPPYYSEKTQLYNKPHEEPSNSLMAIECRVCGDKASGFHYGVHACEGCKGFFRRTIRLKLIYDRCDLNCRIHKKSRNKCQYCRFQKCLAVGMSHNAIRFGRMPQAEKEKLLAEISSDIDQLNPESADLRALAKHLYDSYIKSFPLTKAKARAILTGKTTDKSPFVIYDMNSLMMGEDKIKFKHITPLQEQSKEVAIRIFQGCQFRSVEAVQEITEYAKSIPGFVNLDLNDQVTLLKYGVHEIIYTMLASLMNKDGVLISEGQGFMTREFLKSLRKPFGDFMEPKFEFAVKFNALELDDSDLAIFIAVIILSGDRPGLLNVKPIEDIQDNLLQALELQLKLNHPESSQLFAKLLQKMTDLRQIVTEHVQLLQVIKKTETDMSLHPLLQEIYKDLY

With EAEEPSLLKKLLLAPANTQ (also: fluorescein label, position not given here) [PPARγ coactivator 1α (PGC-1α) peptide, fluorescein-labeled], the “efficacy (maximum recruitment, % of rosiglitazone), with F12016” value in test [1] was determined as 57%. Further, the “efficacy (maximum recruitment, % of rosiglitazone), with rosiglitazone” value in test [2] was determined as 100%.
The like results for NTKNHPMLMNLLKDNPAQD (also: fluorescein label, position not given here) were, in that order, 17% and 100%.
The like results for VTLTSPLLVNLLQSDISAG (also: fluorescein label, position not given here) [nuclear receptor coactivator 250 (RAP250) peptide, fluorescein-labeled] were, in that order, 25% and 100%.

Source of the values: PMC4381330, “Identification of a novel selective agonist of PPARγ with no promotion of adipogenesis and less inhibition of osteoblastogenesis” (Scientific Reports, 2015).
